The values that follow are results of earlier work, collected in paper PMC4366142.

For this series, the target named is muscle voltage-gated sodium channel (UniProt P15390).
Chain of UniProt P15390 (P15390 whole entry): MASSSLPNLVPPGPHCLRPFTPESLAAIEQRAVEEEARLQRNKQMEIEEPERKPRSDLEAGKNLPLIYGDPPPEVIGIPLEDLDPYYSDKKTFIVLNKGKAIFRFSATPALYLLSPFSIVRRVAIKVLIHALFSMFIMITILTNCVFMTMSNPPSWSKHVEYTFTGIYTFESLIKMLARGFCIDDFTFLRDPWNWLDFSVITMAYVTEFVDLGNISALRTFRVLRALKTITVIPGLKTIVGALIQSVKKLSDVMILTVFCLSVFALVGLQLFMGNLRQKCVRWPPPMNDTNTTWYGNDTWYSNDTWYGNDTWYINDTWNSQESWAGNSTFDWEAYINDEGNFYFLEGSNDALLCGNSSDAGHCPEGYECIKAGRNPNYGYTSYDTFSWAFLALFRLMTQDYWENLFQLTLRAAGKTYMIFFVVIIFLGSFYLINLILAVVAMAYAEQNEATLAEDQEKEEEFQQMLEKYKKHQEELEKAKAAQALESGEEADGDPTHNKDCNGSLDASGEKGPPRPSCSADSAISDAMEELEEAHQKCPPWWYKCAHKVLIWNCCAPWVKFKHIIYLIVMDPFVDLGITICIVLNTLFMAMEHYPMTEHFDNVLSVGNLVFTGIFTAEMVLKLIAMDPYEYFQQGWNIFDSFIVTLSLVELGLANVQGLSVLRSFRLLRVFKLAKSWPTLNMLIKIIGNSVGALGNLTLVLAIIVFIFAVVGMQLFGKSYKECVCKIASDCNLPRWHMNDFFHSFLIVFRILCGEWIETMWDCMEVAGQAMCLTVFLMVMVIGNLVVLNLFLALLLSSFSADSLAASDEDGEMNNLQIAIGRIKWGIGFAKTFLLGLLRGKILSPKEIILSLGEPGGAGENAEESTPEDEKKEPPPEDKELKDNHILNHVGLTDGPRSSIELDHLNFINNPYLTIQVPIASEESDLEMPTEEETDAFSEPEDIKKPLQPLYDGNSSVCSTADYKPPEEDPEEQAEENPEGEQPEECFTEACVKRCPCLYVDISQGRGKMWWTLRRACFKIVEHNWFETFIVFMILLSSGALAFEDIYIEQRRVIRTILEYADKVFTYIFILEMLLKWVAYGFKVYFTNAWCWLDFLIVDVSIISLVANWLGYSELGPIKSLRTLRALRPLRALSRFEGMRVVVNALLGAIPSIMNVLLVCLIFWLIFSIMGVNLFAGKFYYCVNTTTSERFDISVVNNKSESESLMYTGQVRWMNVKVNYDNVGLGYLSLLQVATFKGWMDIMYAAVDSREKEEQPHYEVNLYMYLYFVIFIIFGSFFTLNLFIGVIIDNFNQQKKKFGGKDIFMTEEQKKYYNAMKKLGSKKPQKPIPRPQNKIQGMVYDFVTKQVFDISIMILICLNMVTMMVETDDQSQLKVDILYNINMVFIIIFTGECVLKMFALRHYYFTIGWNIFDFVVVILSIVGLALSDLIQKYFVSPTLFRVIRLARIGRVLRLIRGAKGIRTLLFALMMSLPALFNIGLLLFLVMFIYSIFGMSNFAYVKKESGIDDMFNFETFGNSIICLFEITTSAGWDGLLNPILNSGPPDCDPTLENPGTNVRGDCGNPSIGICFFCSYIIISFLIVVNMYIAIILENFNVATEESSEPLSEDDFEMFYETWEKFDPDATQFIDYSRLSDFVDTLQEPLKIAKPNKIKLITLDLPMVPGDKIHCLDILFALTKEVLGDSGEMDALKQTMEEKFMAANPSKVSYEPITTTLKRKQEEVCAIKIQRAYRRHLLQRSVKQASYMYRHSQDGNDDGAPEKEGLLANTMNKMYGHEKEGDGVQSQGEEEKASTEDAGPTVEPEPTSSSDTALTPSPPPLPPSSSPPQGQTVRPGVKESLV

By Kd is commonly meant the free concentration of one partner at which half of the binding sites on the other are occupied at equilibrium, for simple one-to-one binding. In the case of μ-conotoxin GIIIA (from UniProt P01523), the dissociation constant (Kd) was 25 nM.
